Experimental data reported in the supplement of paper PMC10126150.
± gives the standard deviation of the averaged measurements.

Test system: ATP
Test: switch fluorescence ratio, 500 uM ATP over buffer (Cy3 cluster intensity, sum of 5 cycles each) (fold (ratio)); higher = stronger signal-on switching upon ATP binding; sequences stand for … in TCGTCGGCAGCGTCAGATGTGTATAAGAGACAGTTTTTTTTTTTTTTTTTTTTTTTTT…TC
Conditions: aptamer strand: ATP DNA aptamer (quencher-CACCTGGGGGAGTATTGCGGAGGAAGG + anchor), 100 nM annealed; ATP concentration: 500 uM
Method in brief: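 Five buffer/ATP imaging cycles were run on Cy3-labelled switching-strand clusters on a modified Illumina MiSeq flow-cell, with NaOH stripping and re-annealing between cycles. In each cycle, clusters annealed to 100 nM quencher-labelled ATP aptamer were imaged in selection buffer, then after 15 min with 500 uM ATP at 22 °C. Per cluster, the fluorescence ratio is summed target-cycle over summed buffer-cycle Cy3 intensity, averaged per switch-domain sequence. Only clusters within 100-1000 RFU were kept.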
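Further: ATP exposure 15 min at 22 °C before imaging.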

With GGTTGAATTG the switch fluorescence ratio was 0.974 ± 0.01.
Sequence GGTTGAGTG has a switch fluorescence ratio of 0.977 ± 0.0033.
GGTTGATTGG gave a switch fluorescence ratio of 0.973 ± 0.014.
GGTTGCAAGC showed a switch fluorescence ratio of 1.05 ± 0.017.
For GGTTGCCTGC, the switch fluorescence ratio was 0.96 ± 0.029.
GGTTGCTCGG gave a switch fluorescence ratio of 0.998 ± 0.026.
Sequence GGTTGCTGCC has a switch fluorescence ratio of 0.9917 ± 0.0029.
GGTTGGAATA was tested, and the switch fluorescence ratio was 0.965 ± 0.044.
In the case of GGTTGGAATG, the switch fluorescence ratio is reported as 1.08 ± 0.18.
GGTTGGAGGT was tested, and the switch fluorescence ratio was 0.971 ± 0.019.
With GGTTGGGCGA the switch fluorescence ratio was 0.986 ± 0.021.
GGTTGGGGGC showed a switch fluorescence ratio of 0.991 ± 0.025.
For GGTTGGGGTT, the switch fluorescence ratio was 0.942 ± 0.039.
GGTTGGGTG showed a switch fluorescence ratio of 1.03 ± 0.013.
With GGTTGGGTTT the switch fluorescence ratio was 0.989 ± 0.03.
Work on GGTTGGTACT yielded a switch fluorescence ratio of 1 ± 0.026.
With GGTTGGTATG the switch fluorescence ratio was 0.987 ± 0.027.
With GGTTGGTCTT the switch fluorescence ratio was 0.974 ± 0.041.
With GGTTGTACGA the switch fluorescence ratio was 0.986 ± 0.01.
GGTTGTACGT showed a switch fluorescence ratio of 0.984 ± 0.01.
For GGTTGTGATA, the switch fluorescence ratio was 0.999 ± 0.044.
Work on GGTTGTGGGA yielded a switch fluorescence ratio of 0.98 ± 0.053.
GGTTGTGGTT showed a switch fluorescence ratio of 0.998 ± 0.031.
GGTTGTGTTA showed a switch fluorescence ratio of 0.998 ± 0.013.
GGTTGTTCGT showed a switch fluorescence ratio of 1.006 ± 0.0037.
GGTTGTTGAG showed a switch fluorescence ratio of 0.987 ± 0.052.
With GGTTGTTTGG the switch fluorescence ratio was 0.989 ± 0.02.
GGTTGTTTGT was tested, and the switch fluorescence ratio was 0.995 ± 0.015.
Sequence GGTTTAAAGT has a switch fluorescence ratio of 1.01 ± 0.014.
GGTTTAAGCA was tested, and the switch fluorescence ratio was 0.982 ± 0.034.
For GGTTTACGGT, the switch fluorescence ratio was 1.007 ± 0.0018.
In the case of GGTTTAGATA, the switch fluorescence ratio is reported as 0.987 ± 0.031.
With GGTTTAGCGG the switch fluorescence ratio was 0.9809 ± 0.0033.
For GGTTTAGGCC, the switch fluorescence ratio was 0.991 ± 0.03.
GGTTTATGGA was tested, and the switch fluorescence ratio was 1.03 ± 0.024.
Sequence GGTTTATGGT has a switch fluorescence ratio of 0.967 ± 0.019.
GGTTTCAGGG gave a switch fluorescence ratio of 0.986 ± 0.013.
Work on GGTTTCCAAT yielded a switch fluorescence ratio of 1 ± 0.02.
Work on GGTTTCCGGC yielded a switch fluorescence ratio of 1.008 ± 0.0087.
GGTTTCCGT showed a switch fluorescence ratio of 0.987 ± 0.038.
Sequence GGTTTCGATG has a switch fluorescence ratio of 1 ± 0.023.
Work on GGTTTCGCCG yielded a switch fluorescence ratio of 0.985 ± 0.052.
With GGTTTCGGTT the switch fluorescence ratio was 1.5 ± 0.86.
GGTTTCTAGA gave a switch fluorescence ratio of 0.984 ± 0.024.
With GGTTTCTGGG the switch fluorescence ratio was 0.963 ± 0.017.
With GGTTTGAAGC the switch fluorescence ratio was 0.9642 ± 0.008.
Sequence GGTTTGAGGG has a switch fluorescence ratio of 0.985 ± 0.028.
For GGTTTGATAT, the switch fluorescence ratio was 0.972 ± 0.013.
Sequence GGTTTGCAAG has a switch fluorescence ratio of 0.986 ± 0.018.
With GGTTTGCTGT the switch fluorescence ratio was 0.99034 ± 0.00027.
For GGTTTGTTGT, the switch fluorescence ratio was 0.972 ± 0.022.
GGTTTTAACA showed a switch fluorescence ratio of 1 ± 0.051.
With GGTTTTACTC the switch fluorescence ratio was 1.0379 ± 0.0006.
GGTTTTAGGA showed a switch fluorescence ratio of 0.987 ± 0.025.
With GGTTTTGCAC the switch fluorescence ratio was 1.03 ± 0.038.
GGTTTTGGCT was tested, and the switch fluorescence ratio was 0.991 ± 0.01.
GGTTTTGGGT gave a switch fluorescence ratio of 0.978 ± 0.026.
GGTTTTGGTT showed a switch fluorescence ratio of 0.986 ± 0.025.
For GGTTTTGTCA, the switch fluorescence ratio was 1.01 ± 0.019.
GGTTTTTATG was tested, and the switch fluorescence ratio was 1.004 ± 0.009.
GGTTTTTGGC gave a switch fluorescence ratio of 1.02 ± 0.048.
With GGTTTTTTAA the switch fluorescence ratio was 0.995 ± 0.011.
GGTTTTTTTT was tested, and the switch fluorescence ratio was 0.992 ± 0.03.
GTAAACGGGT gave a switch fluorescence ratio of 0.963 ± 0.016.
In the case of GTAACAGGCG, the switch fluorescence ratio is reported as 0.905 ± 0.021.
GTAACCAAGA was tested, and the switch fluorescence ratio was 1.02 ± 0.0035.
With GTAACTAATG the switch fluorescence ratio was 1.02 ± 0.02.
With GTAACTCGAA the switch fluorescence ratio was 0.98231 ± 0.00092.
GTAAGAAAGA showed a switch fluorescence ratio of 1.02 ± 0.015.
GTAAGAGGAA was tested, and the switch fluorescence ratio was 1.01 ± 0.044.
GTAAGGAAAT showed a switch fluorescence ratio of 1.013 ± 0.0024.
GTAAGGGGCG showed a switch fluorescence ratio of 1.02 ± 0.035.
GTAAGTCCGA showed a switch fluorescence ratio of 0.98 ± 0.0033.
GTAATAACGG was tested, and the switch fluorescence ratio was 1.034 ± 0.0033.
In the case of GTAATAAGGG, the switch fluorescence ratio is reported as 1.04 ± 0.041.
GTAATAGGGT was tested, and the switch fluorescence ratio was 1.01 ± 0.033.
In the case of GTAATGATTG, the switch fluorescence ratio is reported as 0.989 ± 0.014.
GTAATGCTCA gave a switch fluorescence ratio of 1.36 ± 0.062.
With GTAATGGGGA the switch fluorescence ratio was 1.02 ± 0.015.
GTAATTGGGA gave a switch fluorescence ratio of 1.022 ± 0.0011.
Sequence GTAATTGTTA has a switch fluorescence ratio of 1 ± 0.015.
Sequence GTAATTTTGC has a switch fluorescence ratio of 0.989 ± 0.059.
GTACAGGTTT was tested, and the switch fluorescence ratio was 1.018 ± 0.0074.
In the case of GTACCCCAGG, the switch fluorescence ratio is reported as 3.5 ± 3.3.
GTACCTTGAT showed a switch fluorescence ratio of 1.05 ± 0.015.
GTACTATCTC was tested, and the switch fluorescence ratio was 0.998 ± 0.046.
With GTACTCATTT the switch fluorescence ratio was 1 ± 0.038.
Sequence GTACTCGAGC has a switch fluorescence ratio of 1 ± 0.018.
In the case of GTAGAGGGGG, the switch fluorescence ratio is reported as 0.989 ± 0.014.
For GTAGCAGGGG, the switch fluorescence ratio was 1.3 ± 0.068.
Sequence GTAGCATGCC has a switch fluorescence ratio of 1.32 ± 0.088.
In the case of GTAGCGAGAG, the switch fluorescence ratio is reported as 2.11 ± 0.24.
GTAGGACGGG gave a switch fluorescence ratio of 0.995 ± 0.012.
Work on GTAGGCCATG yielded a switch fluorescence ratio of 1 ± 0.022.
GTAGGCGGTG gave a switch fluorescence ratio of 0.984 ± 0.029.
Work on GTAGGGATGG yielded a switch fluorescence ratio of 1.03 ± 0.013.
Work on GTAGGGGAAG yielded a switch fluorescence ratio of 1.01 ± 0.017.
With GTAGGGGGTC the switch fluorescence ratio was 1.01 ± 0.027.
GTAGGTTACT gave a switch fluorescence ratio of 1.01 ± 0.019.
In the case of GTAGGTTATG, the switch fluorescence ratio is reported as 1.007 ± 0.0081.
